Conditions in all cases: chain copies: 2; label: tethered by stalled RNA polymerase
In series [1] the target is T1, MS2 coat protein, dlFG mutant (Escherichia phage MS2, UniProt P03612, del68-81insG). Description: 4 mM Mg2+; no ligand; RNA-MaP array; 100 mM Tris-HCl pH 7.5, 80 mM KCl, 4 mM MgCl2, 0.1 mg/mL BSA, 1 mM DTT, 0.01 mg/mL yeast tRNA, 0.01% Tween-20; protein 1.5 nM to 3 uM; 37 C (Table S3).
In series [2] the target is T1, MS2 coat protein, dlFG mutant. Description: 4 mM Mg2+; FMN 200 uM; RNA-MaP array; 100 mM Tris-HCl pH 7.5, 80 mM KCl, 4 mM MgCl2, 0.1 mg/mL BSA, 1 mM DTT, 0.01 mg/mL yeast tRNA, 0.01% Tween-20; protein 1.5 nM to 3 uM; 37 C (Table S3).
The target is the same in series [3]. Put plainly: 4 mM Mg2+; miR-208a RNA 100 nM (AU…UUGU); RNA-MaP array; 100 mM Tris-HCl pH 7.5, 80 mM KCl, 4 mM MgCl2, 0.1 mg/mL BSA, 1 mM DTT, 0.01 mg/mL yeast tRNA, 0.01% Tween-20; protein 1.5 nM to 3 uM; 37 C (Table S3).
For series [4] the target is unchanged. Put plainly: 4 mM Mg2+; theophylline 2 mM; RNA-MaP array; 100 mM Tris-HCl pH 7.5, 80 mM KCl, 4 mM MgCl2, 0.1 mg/mL BSA, 1 mM DTT, 0.01 mg/mL yeast tRNA, 0.01% Tween-20; protein 1.5 nM to 3 uM; 37 C (Table S3).
The target is the same in series [5]. Put plainly: 4 mM Mg2+; L-tryptophan 2.4 mM; RNA-MaP array; 100 mM Tris-HCl pH 7.5, 80 mM KCl, 4 mM MgCl2, 0.1 mg/mL BSA, 1 mM DTT, 0.01 mg/mL yeast tRNA, 0.01% Tween-20; protein 1.5 nM to 3 uM; 37 C (Table S3).

This passage reports Kd results from article PMC9170038, “Crowdsourced RNA design discovers diverse, reversible, efficient, self-contained molecular switches”.

B1: Eterna 7699730 (Exclusion - Theophylline A) (ssRNA)
RNA: AGAAACUUGUAUGUCGGCCCUGCGCGCGAUACCAGCCAAAUGGAUGGCCCUUGGCAGCGCAGCGAGUGAUGUUCGCCCGGCUGAC
Molecule B1 showed a Kd in series [1] of more than 3000 nM.

B2: Eterna 5811984 (Exclusion 6) (ssRNA)
RNA: CUUAGUAUCUAGGAUAUCUAGUACAUAGUAUCUAGAGAAGGAGAUACAUGAGGAUCACCCAUGUUCUGUGUUCU
Regarding B2, the dissociation constant Kd in series [2] came out at 65.6 nM.

B3: Eterna 1142 (Exclusion - Theophylline A) (ssRNA)
RNA: UGCAUCAGUGCCUUUGAUCUAUUCCUGGAUACCAGAUCCUACUUGAUCCCUUGGCAGCCAUACGGGAGUGAUGUUCCAUGUAUCC
Take B3: in series [1], the Kd is more than 3000 nM.

B4: Eterna 7683541 (Same State - FMN B) (ssRNA)
RNA: UAUUAAUUGUCAGGAUAUCGUAAACGAGUGAUGUUCGUAUAUCGACGAUAGUCGAUUCUAUCUAAACGAGAAGGGACAUUAUUUA
B4: the Kd in series [1] is more than 3000 nM.

B5: Eterna 11880 (Sensor v3, turn-off variant 2) (ssRNA)
RNA: AGAAAUGCCCAUGGCCGCAAGCUUUUCGCUUGUCUUACCACAUGAGGAUCACCCAUGUGACAUGGGCUCCUUAUAAU
As for B5, in series [3], the Kd worked out at 10.7 nM. That is a double-digit nanomolar value.

B6: Eterna 13246 (Sensor for hsa-mir-208a) (ssRNA)
RNA: UGGAUCUAGGCUUGCCUGGGUCCAUGUUGACAUGAGGAUCACCCAUGUGUAUUUUAUAAGCUUUUUGUUUGUCAACA
Molecule B6 had a dissociation constant Kd in series [3] of 13.4 nM.

B7: Eterna 7639274 (Exclusion - Theophylline B) (ssRNA)
RNA: UUAUUUAUAAUGGAUACCAGUGCUGUGGCCCGGCAUCCUGACAUGAGGAUCACCCAUGUGUACCCUUGGCAGCUGUUAUGGGUUU
Molecule B7 displayed a dissociation constant (Kd) in series [4] of 24.2 nM.

B8: Eterna 6082084 (Exclusion 3) (ssRNA)
RNA: AACACGUGAGGAUAUACAUGAGGAUCACCCAUGUUGGUACAAUCCUGUCCGACUAUCCGUAGAAGGCAUUGACU
Turning to B8, the dissociation constant Kd in series [2] was found to be 34.1 nM.

B9: Eterna 7682723 (Same State - Arginine A) (ssRNA)
RNA: AAAUUCUUUUUUUUAUUUAACUUUUCAGAAGGAGCGUGGUAGUUCACAGGUAGGUCGCUGAAUUUUGGACUAGUGAUGUUAGUUA
In turn, B9 yielded an equilibrium dissociation constant (Kd) in series [1] of more than 3000 nM.

B10: Eterna 10216 (Sensor for hsa-mir-208a) (ssRNA)
RNA: CUCAAAACAAGUUGCAGUGUUCGUCUUUAACAUGAGGAUCACCCAUGUAAUAACCCAGUGGAAGCGCUCGGGCCACC
B10 had a dissociation constant (Kd) in series [3] of 21.1 nM.

B11: Eterna 7627711 (Same State - Tryptophan B) (ssRNA)
RNA: GGUUACUCUACGGCCGCCACUGAUUAAUUAUAAUCCUGUACAUAAACAUGAGGAUCACCCAUGUACAGGACCGGGUAGUGUAACC
B11 came in with a Kd in series [5] of 29.1 nM.

B12: Eterna 7730854 (Same State - Tryptophan A) (ssRNA)
RNA: UACAUGAGGAUCACCCAUGUCCCAUGUGAACGAGGACCGGUACGGCCGCCACUCGACCGAGGCGGCACAUGAGGAUCACCCGCAU
With B12, binding in series [5] was characterised by a dissociation constant (Kd) of 1580 nM.
